Measurements: US20220220218A1 (JIANGSU HENGRUI MEDICINE, published 2022)

T1: cynomolgus monkey CD73/NT5E protein (His tag), Sino Biological Cat. No. 90192-C08H (cynomolgus monkey, UniProt A0A2K5V5U7 27-547)
T1 construct: also called cynomolgus monkey CD73 protein; cynoCD73; not shown: His tag
T1 sequence: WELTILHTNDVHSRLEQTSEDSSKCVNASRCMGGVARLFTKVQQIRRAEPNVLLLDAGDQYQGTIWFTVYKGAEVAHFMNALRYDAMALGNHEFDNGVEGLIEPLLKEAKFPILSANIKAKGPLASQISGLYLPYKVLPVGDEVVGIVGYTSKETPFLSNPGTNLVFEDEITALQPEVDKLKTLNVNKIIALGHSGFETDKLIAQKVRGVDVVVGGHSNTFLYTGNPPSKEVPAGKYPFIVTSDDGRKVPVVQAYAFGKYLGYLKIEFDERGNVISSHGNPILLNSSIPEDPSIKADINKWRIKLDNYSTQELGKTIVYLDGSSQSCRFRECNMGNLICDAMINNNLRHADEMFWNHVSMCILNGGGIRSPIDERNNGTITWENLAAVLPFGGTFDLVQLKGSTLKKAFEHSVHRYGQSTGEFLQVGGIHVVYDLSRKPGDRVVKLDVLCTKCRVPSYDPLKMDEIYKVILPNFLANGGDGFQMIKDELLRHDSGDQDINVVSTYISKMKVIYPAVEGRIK


Target: T1, cynomolgus monkey CD73/NT5E protein …
Test: ELISA; cynomolgus monkey CD73 coated on plate
Experimental: The cross-binding activity of anti-CD73 antibodies to cynomolgus monkey CD73 protein was tested by ELISA assay. The cynomolgus monkey CD73 fusion protein was directly coated onto a 96-well microtiter plate. The signal strength after the addition of the antibody was used to determine the binding activity of the antibody to cynomolgus monkey CD73. The specific experimental procedures were as follows:
Cynomolgus monkey CD73 (Sino Biological, Cat No. 90192-C08H) was diluted with PBS, pH7.4 (Shanghai BasalMedia, Cat No. B320) buffer to a concentration of 2 μg/ml, was added into the 96-well microtiter plate at 50 μl/well, and was incubated in an incubator at 37° C. for 2 hours. The liquid was discarded, 250 μl/well blocking solution (5% skim milk diluted in PBS) was added, and incubated in an incubator at 37° C. for 3 hours or at 4° C. overnight (16-18 hours) for blocking. After the blocking was finished, the blocking solution was discarded, the plate was washed for 5 times with PBST buffer, 50 μl/well of various concentrations of each of the test antibodies (purified hybridoma antibodies or humanized antibodies, diluted with sample diluent) were added, and incubated in an incubator at 37° C. for 1 hour. After the incubation was finished, the plate was washed for 5 times with PBST, 50 μl/well of HRP-labeled goat anti-mouse secondary antibody (Jackson Immuno Research, Cat No. 115-035-003) or goat anti-human secondary antibody (Jackson Immuno Research, Cat No. 109-035-003) diluted with sample diluent was added, and incubated at 37° C. for 1 hour. The plate was washed for 5 times with PBST, 50 μl/well of TMB chromogenic substrate (KPL, Cat No. 52-00-03) was added, incubated at room temperature for 5-10 min, and 50 μl/well of 1M H₂SO₄ was added to stop the reaction. The absorbance value was read by a microplate reader (Molecular Devices, VERSA max) at a wavelength of 450 nm, and the data was analyzed with GraphPad Prism 5. The binding of anti-CD73 antibody to monkey CD73 was calculated as EC50 value.

EC50 [nM] | Binder
0.033 | Hab108.64 (antibody, human IgG1, kappa, V domains shown, also called humanized antibody of mab108) VH: EVTLKQSGPGLVKPTETLTLTCTVSGFSLSSYGIQWVRQPPGKGLEWLGVIWSGGSADYNAAFISRLTISKDTSKSQVVLTMTNMDPVDTATYYCAGQYGSVWGQGTLVTVSS VL: DIQMTQSPSSLSASVGDRVTITCRASQDIGDRLNWLQQKPGGAIKRLIYATSSLDSGVPKRFSGSGSGTEYTLTISSLQPEDFATYYCLQYAGSWTFGGGTKVEIKR
0.064 | Hab110.21 (antibody, human IgG1, kappa, V domains shown, also called humanized antibody of mab110) VH: EVQLVQSGAEVKKPGASVKVSCKASGYTFTSYTMHWVRQAPGQRLEWMGYINPNSFYIEYNQKFKDRVTITRDTSASTAYMELSSLRSEDTAVYYCARGDYDLFYDMDNWGQGTTVTVSS VL: DIQMTQSPSSLSASVGDRVTITCRASQDIGNSLNWLQQKPGKAIKRLIYATFRLDSGVPSRFSGSRSGTEYTLTISSLQPEDFATYYCQQYASFPWTFGGGTKVEIKR
0.033 | Hab127.31d (antibody, human IgG1, kappa, V domains shown, also called humanized antibody of mab127) VH: EVQLVQSGAEVKKPGASVKVSCKASGYTFTAYFMNWVRQAPGQGLEWMGRIYHNKGDTFYSQKFKGRVTMTVDKSTSTVYMELSSLRSEDTAVYYCATSYVGDWGQGTTVTVSS VL: DIQMTQSPSSLSASVGDRVTITCRASQDIGDSLNWLQQKPGGALKRLIYATSSLDSGVPSRFSGSGSGTEYTLTISSLQPEDFATYYCLQYASFPWTFGGGTKVEIKR
